Positions count from the first letter of the chain named. Names may count otherwise. Each block holds one binder with its values, some of them ahead of it.
Legend:
[1] = biological target: T1, human factor B (purified, Complement Technology A135) (human, UniProt P00751 26-764); experiment: SPR (Biacore 3000), mAb captured by anti-Fc antibody on CM5 chip, soluble human factor B 3.1-200 nM; filing calls this value not reliable (poor fits); poor fits; patent calls the value not reliable
T1 construct: also called fB; human complement factor B
Text: (§1) Binding kinetics of mAbs were further characterized using Biacore's Surface Plasmon Resonance (SPR) technology (GE Healthcare, Piscataway, N.J.). For a detailed description of SPR and its applications in affinity measurement, please see Karlsson and Larsson, Antibody Engineering: Methods and Protocols, Methods in Molecular Biology (2003), 248: 389-415. In one exemplary experiment, TA106 Fab and derivative mAbs were captured on chips of a Biacore 3000 analyzer and samples of human factor B of different concentrations were flowed as the antigen over the surface to model soluble human factor B binding, using protocols recommended by the manufacturer (e.g., in the product brochure #BR-9003-31). All these referenced publications are hereby incorporated by reference in their entirety. […] Fab TA106 (Xoma, Lot#TTA1007, 20 mg/mL) was then flowed over one flow cell, followed by injections of human factor B on both flow cells. Concentrations (factor B) between 3.1-200 nM were run. The surface was regenerated between each cycle. […] The affinities of mAbs, i.e., CLS011, CLS012, and CLS013, were determined using a similar capture approach. In one exemplary experiment, human anti-Fc antibody was amine coupled to two flow cells of a CM5 chip. Each of the TA106-originated mAbs was then flowed over one flow cell, followed by injecting human factor B (3.1-200 nM) on both flow cells. […]

[2] = biological target: T1, human factor B (purified, Complement …); experiment: SPR (Biacore), CLS012 captured on anti-Fc surface, soluble factor B 3.1-200 nM flowed; Chi2 6.74, fitted lines depart visibly from the data (the text calls the fits poor)
Text: as §1

[3] = biological target: T1, human factor B (purified, Complement …); experiment: cell-based or functional assay
[4] = biological target: T1, human factor B (purified, Complement …); experiment: BLI (Octet), biotinylated factor B on streptavidin biosensor, Fab at 50 nM
Experimental: (§2) Binding kinetics of TA106 and TA106 S33A Fab (CLS016) to Factor B were analyzed using a FortéBio® Octet® biosensor (FortéBio, Inc.) in a similar protocol as described previously. In one exemplary experiment, Factor B (Complement Technology) was biotinylated at a 1:10 ratio and coupled to a streptavidin biosensor at a concentration of 5 μg/mL for a loading time of 600 seconds. Biosensors were briefly dipped in 1×KB as a wash for 30 seconds. Associations with a titration series of Fab with a concentration range from 100 to 3 nM (diluted in 1×KB) were carried out for 600 seconds. Fabs were dissociated from the biosensor by immersing the biosensor in 1×KB during the 600 second dissociation phase. As depicted in FIGS. 19 and 20, both TA106 Fab and TA106-derivative S33A Fab (CLS016) bound to Factor B at various concentrations, resulting in nearly identical association and dissociation profiles. Kinetic assessments using partial local fit parameters yielded identical values for KD/kₐ/Kd at each concentration tested.

[5] = biological target: T1, human factor B (purified, Complement …); experiment: BLI (Octet), biotinylated factor B on streptavidin biosensor, Fab at 6.25 nM
Experimental: as §2

[6] = biological target: T1, human factor B (purified, Complement …); experiment: SPR, factor B on surface, Fab flowed (summary table)
Text: (§3) Binding kinetics of TA106 Fab and variant S33A Fab (CLS016) were further characterized using Surface Plasmon Resonance (SPR) technology. In one exemplary experiment, both Fabs were captured on chips of a Biacore 3000 analyzer and samples of human factor B of different concentrations were flowed as the antigen over the surface to model soluble human factor B binding, using protocols recommended by the manufacturer and described previously in the instant disclosure. […] In another exemplary experiment, the affinities of both Fabs were also measured by reversing the orientation of the previous experiment. Specifically, human factor B was directly coupled to one flow cell of a CM5 chip. The second flow cell was used as a blank reference with no coupled ligand. CLS016 or TA106 Fab was then flowed on both flow cells. Concentrations between 0.19 to 25 nM were run with duplicates. The surface was regenerated between each cycle.

[7] = biological target: T1, human factor B (purified, Complement …); experiment: BLI (Octet), biotinylated factor B on streptavidin biosensor, Fab at 12.5 nM
Experimental: as §2

[8] = biological target: T1, human factor B (purified, Complement …); experiment: SPR (Biacore), factor B coupled to the chip, free CLS016 Fab 0.19-25 nM flowed; Chi2 0.121
Text: as §3

[9] = biological target: T1, human factor B (purified, Complement …); experiment: BLI (Octet), biotinylated factor B on streptavidin biosensor, Fab at 3.13 nM
Experimental: as §2

[10] = biological target: T1, human factor B (purified, Complement …); experiment: SPR (Biacore), CLS016 Fab captured on anti-Fab surface, soluble factor B flowed; Chi2 0.155
Text: as §3

[11] = biological target: T1, human factor B (purified, Complement …); experiment: BLI (Octet), biotinylated factor B on streptavidin biosensor, Fab at 25 nM
Experimental: as §2

[12] = biological target: T1, human factor B (purified, Complement …); experiment: SPR (Biacore), factor B coupled to the chip, free CLS016 Fab 0.19-25 nM flowed; Chi2 0.121 (the text rounds to 3.4 nM)
Text: as §3

[13] = biological target: T1, human factor B (purified, Complement …); experiment: BLI (Octet), binding to factor B (summary table)
Experimental: as §2

[14] = biological target: T1, human factor B (purified, Complement …); experiment: SPR (Biacore), human factor B directly coupled to CM5 chip, Fab flowed at 0.19-25 nM
Text: as §3

[15] = biological target: T1, human factor B (purified, Complement …); experiment: BLI (Octet), biotinylated factor B on streptavidin biosensor, Fab at 100 nM
Experimental: as §2

[16] = biological target: T1, human factor B (purified, Complement …); experiment: SPR (Biacore 3000), Fab captured on chip, soluble human factor B 3.1-100 nM
Text: as §3

T1 sequence (P00751 26-764): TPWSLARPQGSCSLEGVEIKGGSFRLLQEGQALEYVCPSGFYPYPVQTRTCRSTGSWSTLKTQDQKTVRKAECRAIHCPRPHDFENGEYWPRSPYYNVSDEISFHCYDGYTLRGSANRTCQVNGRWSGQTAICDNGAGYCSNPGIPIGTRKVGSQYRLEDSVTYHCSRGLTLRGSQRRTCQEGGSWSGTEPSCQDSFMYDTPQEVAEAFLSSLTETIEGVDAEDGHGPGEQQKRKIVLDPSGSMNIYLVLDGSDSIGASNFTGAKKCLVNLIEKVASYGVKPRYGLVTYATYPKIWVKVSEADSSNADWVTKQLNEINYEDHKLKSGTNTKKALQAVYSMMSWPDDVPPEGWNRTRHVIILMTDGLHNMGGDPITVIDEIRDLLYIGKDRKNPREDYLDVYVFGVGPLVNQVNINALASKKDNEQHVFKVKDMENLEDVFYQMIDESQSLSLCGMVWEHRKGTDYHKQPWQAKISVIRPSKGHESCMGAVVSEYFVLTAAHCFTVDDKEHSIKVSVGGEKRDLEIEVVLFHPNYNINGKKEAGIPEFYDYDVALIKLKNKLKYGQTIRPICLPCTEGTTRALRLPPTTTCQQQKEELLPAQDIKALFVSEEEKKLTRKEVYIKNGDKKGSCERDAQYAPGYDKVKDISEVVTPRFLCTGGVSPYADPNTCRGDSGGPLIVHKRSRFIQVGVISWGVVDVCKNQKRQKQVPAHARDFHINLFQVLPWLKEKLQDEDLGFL

- Kd [1]: ~0.0115 µM
- koff [2]: 0.00422 s⁻¹
- kon [2]: 366000 M⁻¹ s⁻¹
- IC50 (read off the curve); lysis of rabbit red blood cells in 10% normal human serum [3]: ~0.02 µM
B1: CLS012 (TA106-derivative N31Q variant, full-length IgG2/4 mAb, expressed in CHO cells) (antibody, V domains shown)
VH: EVQLVQSGAEVKKPGASVKVSCKASGYSFTDYYMTWVRQAPGQGLEWMGWINPNSGGTKYAQKFQGRVTMTRDTSISTAYMELSRLRSDDTAVYYCARGYYANSAWFAYWGQGTLVTVSS
VL: DIVMTQSPDSLAVSLGERATINCKSSQSLLQSSTSKNYLAWYQQKPGQPPKLLIYWASTRESGVPDRFSGSGSGTDFTLTISSLQAEDVAVYYCKQVYNLPWTFGQGTKLEIKR
modifications: N-linked glycans on the heavy chain constant region
notes: Human IgG2/4 full-length mAb; also called CLS012 mAb; TA106 variant N31Q

- Kd [4]: 0.0215 µM
- koff [4]: 0.00412 s⁻¹
- kon [4]: 192000 M⁻¹ s⁻¹
- Kd [5]: 0.0419 µM
- koff [5]: 0.00322 s⁻¹
- kon [5]: 76900 M⁻¹ s⁻¹
- Kd [6]: 0.0026 µM
- Kd [7]: 0.0314 µM
- koff [7]: 0.00353 s⁻¹
- kon [7]: 112000 M⁻¹ s⁻¹
- koff [8]: 0.00466 s⁻¹
- kon [8]: 1.38e+06 M⁻¹ s⁻¹
- Kd [9]: 0.028 µM
- koff [9]: 0.00244 s⁻¹
- kon [9]: 87300 M⁻¹ s⁻¹
- koff [10]: 0.00429 s⁻¹
- kon [10]: 131000 M⁻¹ s⁻¹
- Kd [11]: 0.0222 µM
- koff [11]: 0.00392 s⁻¹
- kon [11]: 177000 M⁻¹ s⁻¹
- Kd [12]: 0.00337 µM
- Kd [13]: 0.02 to 0.03 µM
- Kd [14]: ~0.0034 µM
- Kd [15]: 0.013 µM
- koff [15]: 0.00438 s⁻¹
- kon [15]: 338000 M⁻¹ s⁻¹
- Kd [16]: ~0.0328 µM
B2: CLS016 (TA106-derivative S33A variant, IgG1 Fab, expressed in CHO cells) (Fab, V domains shown)
VH: B1 VH with E1Q
VL: B1 VL with Q31N, S33A
notes: IgG1 Fab of the S33A variant, made in CHO cells; also called TA106 S33A Fab; TA106-derivative S33A Fab
